The target in the assay is CLuc-TaVIH2 (Triticum aestivum (wheat)). In words: split reporter.

Turning to NLuc-TaFLA7 (natural protein), the fold increase of luminescence (RLU) over controls was 7 to 8 fold.

The values are drawn from doi:10.1101/2024.09.24.614694.
